In the first assay the target is endophilin SH3 (SH3G2_HUMAN), Q99962. In words: SPOT array.
Molecule ALLVPVKPPTAWEG [Q8TCB4 82-96] had a normalised SPOT signal, Boehringer light units (BLU); mean over the file's lines of this peptide of 55.1.
On the same count and under the same terms, under GTRQLGRPKRSPRS [P01266 150-163] stands 152; under GYDSLRRPGSRSKR [O43610 251-264], 141; under GWIQPRRPRDPTPS [Q14137 202-215], 836.
Same read-out and setting: under GWGSPGRPKKKHTG [O94987 842-855] stands 317; under GTRAPQRPKRESRG [Q9H7I4 14-27], 1420.
Take GSVHPVRPMRLESF [P26022 194-207]: the normalised SPOT signal, Boehringer light units (BLU); mean over the file's lines of this peptide was 2470.
The same measure, in the same setting: under GWGSPRRPTEAEAR [Q14767 91-104] stands 194; under GSSALKRPFEDGLG [Q9BXG4 352-365], 39.6; under ALPLPGRPARGVFY [Q9P025 127-140], 1290.
Molecule GTLPPPRPRREGRS [Q9H7L8 148-161] gave a normalised SPOT signal, Boehringer light units (BLU); mean over the file's lines of this peptide of 3720.
Same read-out and setting: under GSEPPRRPPPAPHD [P48634 1687-1701] stands 2350.
On the same count and under the same terms, under GYGLLVRPSRVRRA [O75134 505-518] stands 747; under GVPVPKRPAEGGGG [Q9NY27 58-71], 88.7.
Same read-out and setting: under GSVELRRPPAHQVM [Q15142 511-524] stands 52.2.
On to GSELPRRPLPPAAQ [P04818 4-17], for which the normalised SPOT signal, Boehringer light units (BLU); mean over the file's lines of this peptide came to 70.6.
Still for that read-out and setting: under GSWSPMRPKKEAMK [O75928 422-435] stands 1880; under GTQELRRPAQLRLQ [P98161 595-608], 45.8; under ALPHFRRPFFEEAA [Q9HCI5 739-752], 95.9.
Still for that read-out and setting: under GTPKPKRPAILTYH [Q9UN36 56-69] stands 1130; under GVISLKRPFINLTA [Q9NYQ8 617-630], 35.8.
The same measure, in the same setting: under GSQAPARPPKPRPR [Q13191 898-911] stands 62500; under GTYQLRRPEDRPAG [Q96AB7 34-47], 21.7; under GVSKPRKPPMVMTP [Q9Y6X0 438-452], 328.
As to GWATPRRPAGLLML [O60449 4-17], the normalised SPOT signal, Boehringer light units (BLU); mean over the file's lines of this peptide came to 247.
Still for that read-out and setting: under GSEKPKRPVSAMFI [P17480 403-416] stands 2530; under GSPAPKRPPDPFPG [O43593 424-437], 706; under GSPEPKRPGVSEAA [Q9UN79 64-77], 17.9.
GSQVPERPPKPFPR [P22681 815-829] displayed a normalised SPOT signal, Boehringer light units (BLU); mean over the file's lines of this peptide of 13600.
Regarding GSSSPSRPPGLSSN [BAC05127 110-124], the normalised SPOT signal, Boehringer light units (BLU); mean over the file's lines of this peptide came to 318.
In turn, GTVELRRPGQSHAA [Q9NVM4 598-611] showed a normalised SPOT signal, Boehringer light units (BLU); mean over the file's lines of this peptide of 42.6.
The same measure, in the same setting: under GSGKPSRPSKPIVA [Q15598 1240-1253] stands 1350; under GYDRLRRPGSRSKH [Q9C004 264-277], 142.
On the same count and under the same terms, under GSGSPVRPPVSTWG [Q9NUB4 27-41] stands 16.6; under GSESLSRPWRARAK [O94851 799-812], 91.7.
The same measure, in the same setting: under GTGSPARPPTPAQV [Q9Y4Y7 208-222] stands 2420.
GTVYPKRPEKPVPP [Q9Y5K6 406-419] had a normalised SPOT signal, Boehringer light units (BLU); mean over the file's lines of this peptide of 962.
Still for that read-out and setting: under GWRSLQRPARRSGR [Q99700 27-40] stands 39.1.

The next assay deals with T1, amphyphisin SH3 (AMPH_HUMAN), P49418.
T1 chain: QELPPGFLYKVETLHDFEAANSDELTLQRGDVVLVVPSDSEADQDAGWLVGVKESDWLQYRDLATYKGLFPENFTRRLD
The assay can be described thus: SPOT array.
ALLVPVKPPTAWEG [Q8TCB4 82-96]: the normalised SPOT signal, Boehringer light units (BLU); mean over the file's lines of this peptide amounted to 2.4.
GTRQLGRPKRSPRS [P01266 150-163] had a normalised SPOT signal, Boehringer light units (BLU); mean over the file's lines of this peptide of 148.
On the same count and under the same terms, under GYDSLRRPGSRSKR [O43610 251-264] stands 31.2; under GWIQPRRPRDPTPS [Q14137 202-215], 76.8.
Still for that read-out and setting: under GWGSPGRPKKKHTG [O94987 842-855] stands 135; under GTRAPQRPKRESRG [Q9H7I4 14-27], 11400.
In the case of GSVHPVRPMRLESF [P26022 194-207], the normalised SPOT signal, Boehringer light units (BLU); mean over the file's lines of this peptide stood at 9890.
Same read-out and setting: under GWGSPRRPTEAEAR [Q14767 91-104] stands 23.4; under GSSALKRPFEDGLG [Q9BXG4 352-365], 27.5.
Molecule ALPLPGRPARGVFY [Q9P025 127-140] yielded a normalised SPOT signal, Boehringer light units (BLU); mean over the file's lines of this peptide of 602.
Same read-out and setting: under GTLPPPRPRREGRS [Q9H7L8 148-161] stands 5470; under GSEPPRRPPPAPHD [P48634 1687-1701], 372; under GYGLLVRPSRVRRA [O75134 505-518], 2560.
With GVPVPKRPAEGGGG [Q9NY27 58-71], the normalised SPOT signal, Boehringer light units (BLU); mean over the file's lines of this peptide was 17.4.
On the same count and under the same terms, under GSVELRRPPAHQVM [Q15142 511-524] stands 55.2; under GSELPRRPLPPAAQ [P04818 4-17], 40.1; under GSWSPMRPKKEAMK [O75928 422-435], 168.
On the same count and under the same terms, under GTQELRRPAQLRLQ [P98161 595-608] stands 47.4; under ALPHFRRPFFEEAA [Q9HCI5 739-752], 43.2; under GTPKPKRPAILTYH [Q9UN36 56-69], 33.4.
Still for that read-out and setting: under GVISLKRPFINLTA [Q9NYQ8 617-630] stands 16.4; under GSQAPARPPKPRPR [Q13191 898-911], 423; under GTYQLRRPEDRPAG [Q96AB7 34-47], 14.3.
The molecule GVSKPRKPPMVMTP [Q9Y6X0 438-452] yielded a normalised SPOT signal, Boehringer light units (BLU); mean over the file's lines of this peptide of 58.3.
Still for that read-out and setting: under GWATPRRPAGLLML [O60449 4-17] stands 48.3; under GSEKPKRPVSAMFI [P17480 403-416], 39.3; under GSPAPKRPPDPFPG [O43593 424-437], 51.3.
For GSPEPKRPGVSEAA [Q9UN79 64-77], the normalised SPOT signal, Boehringer light units (BLU); mean over the file's lines of this peptide worked out at 26.6.
On the same count and under the same terms, under GSQVPERPPKPFPR [P22681 815-829] stands 1710; under GSSSPSRPPGLSSN [BAC05127 110-124], 72.7.
The same measure, in the same setting: under GTVELRRPGQSHAA [Q9NVM4 598-611] stands 29; under GSGKPSRPSKPIVA [Q15598 1240-1253], 125.
As to GYDRLRRPGSRSKH [Q9C004 264-277], the normalised SPOT signal, Boehringer light units (BLU); mean over the file's lines of this peptide was found to be 30.6.
The same measure, in the same setting: under GSGSPVRPPVSTWG [Q9NUB4 27-41] stands 32.2.
Still for that read-out and setting: under GSESLSRPWRARAK [O94851 799-812] stands 248; under GTGSPARPPTPAQV [Q9Y4Y7 208-222], 85.9; under GTVYPKRPEKPVPP [Q9Y5K6 406-419], 42.9.
The same measure, in the same setting: under GWRSLQRPARRSGR [Q99700 27-40] stands 2550.
